The source of these data is PMC4538832, “Structures of the T. brucei kRNA editing factor MRB1590 reveal unique RNA-binding pore motif contained within an ABC-ATPase fold” (Nucleic Acids Research, 2015).

The term Kd denotes the free concentration of one partner at which half of the binding sites on the other are occupied at equilibrium, for simple one-to-one binding. A higher Kd goes with a looser complex.

The test system of this data set is T1, MRB1590(10-668) (Trypanosoma brucei), UPI00067E648B.
T1 sequence: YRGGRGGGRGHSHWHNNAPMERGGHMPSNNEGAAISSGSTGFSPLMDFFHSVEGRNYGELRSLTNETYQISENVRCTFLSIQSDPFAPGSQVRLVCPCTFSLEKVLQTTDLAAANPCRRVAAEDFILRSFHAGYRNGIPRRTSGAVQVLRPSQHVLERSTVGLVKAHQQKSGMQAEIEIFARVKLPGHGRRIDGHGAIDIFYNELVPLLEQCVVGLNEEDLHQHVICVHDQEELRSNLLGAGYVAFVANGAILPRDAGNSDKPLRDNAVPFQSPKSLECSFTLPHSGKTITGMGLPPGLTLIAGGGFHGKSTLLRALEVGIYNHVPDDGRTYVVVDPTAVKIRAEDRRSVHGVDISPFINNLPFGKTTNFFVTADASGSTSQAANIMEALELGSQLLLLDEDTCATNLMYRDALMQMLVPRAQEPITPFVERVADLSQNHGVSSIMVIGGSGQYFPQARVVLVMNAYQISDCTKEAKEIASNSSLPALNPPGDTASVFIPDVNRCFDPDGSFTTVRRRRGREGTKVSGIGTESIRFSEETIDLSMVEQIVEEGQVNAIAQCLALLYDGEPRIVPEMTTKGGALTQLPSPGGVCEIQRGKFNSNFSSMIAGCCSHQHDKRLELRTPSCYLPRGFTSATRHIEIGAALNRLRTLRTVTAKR
Put plainly: fluorescence polarization. The note with it: FP: 20 mM Tris-HCl pH 7.5, 150 mM NaCl, 5% glycerol, 1 mM MgCl2, 2 mM ADP or AMP-PNP, 1 nM 3'-fluoresceinated RNA (heated to 99 C, slow cooled), 25 C. A general note: Fluorescence polarisation rises when a labelled molecule tumbles more slowly, as on binding a larger partner.
With 40 mer GC-rich A6, the Kd amounted to 1.3 nM.

In turn, GC-rich RNA 14 mer returned a Kd of 236 nM.

In turn, GC-rich RNA 15 mer displayed a Kd of 27.9 nM.

The substance GC-rich RNA 16 mer came in with a Kd of 8.2 nM.

Regarding GC-rich RNA 18 mer, the Kd was found to be 5.7 nM.
